US20260116983A1
Each block holds one binder with its values, some of them ahead of it.

Columns and labels:
[1] = molecular target: human uPAR displayed on the surface of MDA-MB-231 cells (human) (UniProt Q03405); experiment: cell-based or functional assay
[2] = molecular target: human uPAR (recombinant protein used in ELISA and BLI) (human) (UniProt Q03405); experiment: ELISA, plate-coated human uPAR
[3] = molecular target: human uPAR displayed on the surface of MDA-MB-231 cells (human) (UniProt Q03405); experiment: flow cytometry (FACS) on MDA-MB-231 cells

Sequence of human uPAR displayed on the surface of MDA-MB-231 cells (human) (Q03405 23-305): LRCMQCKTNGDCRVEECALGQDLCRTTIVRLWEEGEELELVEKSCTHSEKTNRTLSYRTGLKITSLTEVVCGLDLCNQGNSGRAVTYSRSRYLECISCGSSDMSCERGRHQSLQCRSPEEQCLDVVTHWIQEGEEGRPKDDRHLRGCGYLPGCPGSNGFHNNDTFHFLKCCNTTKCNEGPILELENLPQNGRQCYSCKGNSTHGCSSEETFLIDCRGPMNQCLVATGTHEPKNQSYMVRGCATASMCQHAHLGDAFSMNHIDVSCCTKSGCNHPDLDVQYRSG
Sequence of human uPAR (recombinant protein used in ELISA and BLI) (human) (Q03405 23-305 limits assumed): as the sequence (Q03405 23-305) above

Adhesion blocking EC50 [1]: 810 nM
EC50 [2]: 0.28 nM
Cellular recognition Max % [3]: 971%
EC50 [3]: 292 nM
B1: 3C6 (antibody, from another filing, V domains shown)
VH: QVQLQQWGAGLLKPSETLSLTCAVYGGSFSGYYWSWIRQPPGKGLEWIGEINHSGSTNYNPSLKSRVTISVDTSKNQFSLKLSSVTAADTAVYYCARGRRFGDFDYWGQGTLVTVSS
VL: QPVLTQPPSVSVAPGKTARITCGGNNIGSKSVHWYQQKPGQAPVLVVYDDSDRPPGIPERFSGSNSGNTATLTISRVEAGDEADYYCQVWDSSSDHSPFGTGTKVTVLG
ADC Cytotoxicity Max % [1]: 1.42%

ADCC NK-92 EC50 [1]: 22.5 nM
ADCC NK-92 Max % [1]: 33.9%
ADCC PBMCs EC50 [1]: 8.65 nM
ADCC PBMCs Max % [1]: 65.5%
Adhesion blocking EC50 [1]: 3500 nM
EC50 [2]: 0.26 nM
Cellular recognition Max % [3]: 2200%
EC50 [3]: 16.6 nM
B2: 2G10 (antibody, from another filing, V domains shown)
VH: QVQLQQSGPGLVKPSQTLSLTCAISGDSVSSNSAAWNWIRQSPSRGLEWLGRTYYRSKWYNDYAVSVKSRIIINPDTSKNQFSLQLNSVTPEDTAVYYCARDPGGPLDDSFDIWGQGTMVTVSS
VL: DVVMTQSPLSLPVTPGEPASISCRSSQSLLRSNGYNYLDWYLQKPGQSPQLLIYLGSIRASGVPDRFSGSGSGTDFTLRISRVEAEDVGVYYCMQALQTPFTFGQGTKLEIKR
ADC Cytotoxicity Max % [1]: 4.9%
